In the domain aggregation screens of Martell et al. (2025):

Assay: soluble fraction after stress (log2 fold change); higher = more stays soluble; pooled small domains, quantitative proteomics
Conditions: stress: 75 degC
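Note: 20 min heating vs room temperature control held 20 min.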

Sequence	soluble fraction (log2)
HMDVSEITTIKWIIKETKLGINEKILIYVNSKNFTVETLMEGFEIMSKYLVENVSSDKIVYIKN	0.0119
HMDVTDRLARRLQGLRSAQGLSLDALAARSGVSRSNISLIERGQSSPTATVLDKLSAALGVTLAALFEEP	-1.04
HMDWVAYGAELRRRRLLAGWTVAELSRRINLSGMTIHQIEKGRGRLRPSELTLAKLAAALGMPTP	-3.58
HMDYEVPEELEEKFSENPQFKEAFDNLTPGRQHQYIYHISQAKRSQTRINRIEKYYEHILNGKGMQD	0.111
HMDYGTATASAILYLEKIDPENPYLLLAKDTITTNPKMSVNFALKGIIESKKGEKEENLNKALEIMSSL	-0.144
HMDYKSNLQEMVQTTKKSVTYELVKEEGPAHDRTFTMNVIVDGIVLGTGTAKSKKEAEQEAAHQALEKKA	-0.253
HMDYTGIPQSLLDLMKKDNIMPMQIQRAVAERNYYPVDTPISNYDPMFIEAKLVGAWDQVLNVISHLDLP	-1.25
HMDYTPIEVKDLPQAIQDALTKNFSEYTVKSAAYQEDEDGVKIYQVTVVDEEGTEANIFFTEKGE	0.206
HMEADERRNEILDAAETLITEKGYSKTTIIDILNQVGIAKGTFYYYFKSKEEVMDAIIERFI	-2.41
HMEAEGLDFAPMPGEIGKKLWQEVSKEAWAGWLKHQTMLVNENRLSFVDPAARKYLTEQTEAYFFG	0.131
HMEAEMLYQVKVKITNLVIRSGAGAIYPIVKRYASGVLPIYEEKNGYGKIAVGQWISLSPEFVERVD	-3.13
HMEAEPRLLDLPPGTRAGRLDKVLAQLLPEHSRSRLQGWIERGGVLVNGKEASVRQVVGPGDQLTVWEEAA	-0.0507
HMEAEQLEAIRSALQQLSDMNRTVFNLHVVDGYKHEEIAAMLNITTGTSKAHLHRAKKRLRELID	-1.04
HMEAEVIKTASDMADRNGLHNVSLKAIAENLGIRTPSLYNHIGSLDELLREIAHSGMRTMNE	-0.0854
HMEAFAEAVASMLRKLQPEFAIDLVGPRELLVNGRRLDLENLYRMVNHEPVRGQEIVEHYLDQLFAG	-1.17
HMEAGLRMPEQLTAFSALALLQKVRDSGPLTDAQKEQLDADVLRIEASHFGKADREALELEEILKQWLSRV	0.149
HMEAKSSTKALLDVVLGRNGVSTANVAKSLNISVQNASTRLKKLSSEGVIMRSEVSSPTGGIEFIYS	0.109
HMEAKTSNPDYHARLGLTEGEGNDSALGVSVKAAEGGFGLLFGNKVGSDQLVRFANEDQVWLVNRALS	0.165
HMEALNIEQKKVEIINVLLEKGKGKGRLSYKEISDQIDTVELDKDQMDELYETLMTNGIEIV	0.00136
HMEALPSNLRRLRLEAQLTLDRLGALSGVSRAMISKIERGASVPTATMLGKLAAALQVSLSQLL	-1.18
HMEAMITEVKRINYGLISDISKSLDPFKSEGGHIIVDKRTNTFILTDLRANIEKMLWSIEIMD	-0.196
HMEAPNELLVPEGARPARADRVLAAAFPEHSRTALQRAFDAGLVRRANLVLSRDTAVAGGDRIAFSLPAV	0.0788
HMEARYQLREVSLDGLRSGMILNADVLSTDGVLMARKGLEVSGLLRSRLEAFAKMERIEPTFKVLVPIAPP	-2.19
HMEASSTAIQAMIRRLIDDENPRKPLSDAKLADLLKSSGIPVARRTVAKYREAMNISASHERVRI	-0.793
HMEATEFYLEDLTGQMYNDVVNDEKYAGKIVFEKEEVQSDGEEAIGQILNQRPAGNMNVRIGTTVTLVVNA	0.242
HMEATVGSRVRLARIGLTLTQKQLAQAVGVSANHLAMVERGSKHASEDLLQRIATATHTTYEWLMGTSEHQ	-2.43

Sequence	soluble fraction (log2)
HMEAVIENAAIIKQNSGGYAVRATVNGVDLGMKPVERATALLYFSLTDKLEKDRLLSHTLQKTYGDLSA	-0.212
HMEAYLPVTVVSDGKILTGNLEKAGKNEKWLENVLSELKTDVKNTLLLTVDPKDGLIFYPKG	0.408
HMEAYMVPNVKNKTLNEAQQALSNQKLKGLVIDSSYVKGVPDGMVLDQNPAGGARVKEGRTIYLTVTTS	0.237
HMEDADERRALEVLNQLLDLPEREQEAALAALSLPPALARRVRSLLSVQTRAADLFDTAPSP	0.0142
HMEDAFLQRLISIIEANLSNVDFNVKMLAEQLNMSQPTLYRKVKQRSELSVIDMIRSIRILSLIHISEPTR	-1.07
HMEDDRLIQNLLLTAKNLVMDVGRMDESALAENEDTVRTAMLFALGYLYENRSNPDYHKLTLNLRSILFA	-0.38
HMEDEISLGAINVPRGSVIVTAGGARLVEGSDYTVDYYSGTVKILNKSLLDAGTPINVSLET	-0.0249
HMEDETAKVLRLLAENNGYLPYNDKSDPTDIYAFFGMSKKAFKMTTGNLYKQKKIQFTQTGIQLIE	-1.77
HMEDEVSSSAAYQALLEKGVSKTLARSWVIDYGEAYVLDKVDLTTSQAARGKIKSSTAGFLKAAIEEDFHN	-0.0992
HMEDGEALARAVASLPGKYREVLFLKYSHGYSVDEIALILSMSKENVKKTIQRARKKLEQLLESE	-1.3
HMEDGEVTVPDLRGLTIKEAGTILEKLGLHLSPVGTGLAVRQDVAPGSKVARDTTITVEFEPPDIQVLR	0.374
HMEDIKHVVANNIKKYRKEERLTLQQLSYLTGVSKTMLNQIETEKSSPSITILWRISSGLKIPLSKLISSP	-1.58
HMEDIPENIRYKFLLKELKENEHLNILDKENIARKLTEIDLPELEKELLENEILNSTIKDYLGIKLV	0.494
HMEDKFEYQGELKSLIEPTSFSELVSALNVRDTLQAIIDFAMREEDTSGYEELKVRQNDYIQEYLNSIGNF	-0.761
HMEDKFEYQGERKSLIYPTSFSELTEALGVRNMLQSIIDFATRDEDTSGYEEMKERQNEYIQEYL	-0.0262
HMEDKKQVLYELITDKSYRPLRFKELAVLLMVPKALRGELKQTLDELIKEGKITVDSSSRYRAA	0.599
HMEDLDKIISAYLDENPQIVSDYGKGNKKAVNSAIGFVMKSTGGKYSSSDIVDAVRSMIVSISV	-0.667
HMEDNYYENKINYLFGYLDEADKEISVNSILDFHLAHRTNPEFVFEPKKNTNPLIWKYLSNSNLLY	0.398
HMEDPLGDLIGRIAAATGRPVQDIVAEVHRVVTDHFDGNLRVEAAAVILARKYGVAFEDKLSALQRSV	0.0325
HMEDSAKRHQIMDGARRVFMDLGFDGASMNEIARAAGVSKGTLYVYFTDKNRLFEAIVEQESL	-1.27
HMEDSEYDRLLAEIDEGIRKAIETLEPVELSPQNARVRRIQHQIIEKYQLHSDSVGEEPYRRVRIL	-0.596
HMEDSHIYPVSFNGKMRFKLELPVSMNKKEIEEVVLQHEDAQKWLNGQNPKKVIVVPKRIINIV	0.0193
HMEDTVNVPIQINGKLRHVIQVQIGTSEEEIQKIALSEEQVKKFTDGHEILKVMVPKGKLVSIVI	-1.04
HMEDVLVTQIIQLKHVDANDMKTLFTPLLSRGSSQLLAYPQSNVLIITDTRSNIKKITEILDIIDKS	-3.02
HMEDVRSLTGPEKAAIILLSLGEEHGQGVWRMFDDEEVKEVSQIMANLGTISASVVEKLLVEFVSQMST	-0.96
HMEDYYKILGVQSNSNPDDIKKAYRKLSLKHHPDRGGDASEFKKINEAYQTLGTPEKRKMYDMQQNN	-0.169

Sequence	soluble fraction (log2)
HMEEEPALLRDLLAKTLEFGLIPQLSHHPALADRTQQLASAVRAAGSASALRNAAASLKSLWIDVDQ	-0.0158
HMEEFDLNAYITKINSAATLNALKQAYAEANSAALSVKDKDAQRKIIVEKDKRKAELIQETAG	0.453
HMEEIALTDILNRFLSSLSLEQRKIFMRRYWYLSPIKEIATEYGMSESKIKMSLFRSRNELKKLLEKEGI	-0.499
HMEEINTAPVFKNIIEIAEYAKTKFTTVEEIPKMIEFIETANSKLDNPHDEESVNELINALSTNIRKNV	0.347
HMEEITLIAEDEGLRLDTWLTDKLKDYSRSYIQKLMEDELVLVNGKARKANYRIKTGDEIHVSIPEPE	-0.0663
HMEELLVAVKADGSIWADGRPITPDGLASFIDSKPADAVLNLAVDKKAPFAAFVKVVDVAKEKKSGRFVIR	-0.41
HMEELPIIVAQRFLNIFRQLHIFSDERREAFNKMLLELPPEVKSIFQSLPGGTPLQEYMEDLEQKSK	-0.721
HMEELTPLQKYVFDYESDISDEVDMRAIKGLENANDVYDYYANVRGWEGDPDLEDDLDNIYRQVKARFA	0.0255
HMEEMTIRQKRTMIFFIEATKHILQEDGYDHLTIREIAQRAGYNAATLYHYFRDLDELIIYGSVG	-0.439
HMEEPEELYRVKILIYNLLVRNGPGILYTRLRRADYPGEYGIYEEKNGYGKISATLSEWISLNTEYVQRLD	-3.72
HMEEVYVPDIRDKSISDAKKILSQMGLKYRIEGEGYDDSTVIKDQTPKPGALLAKDSVVIAYINE	0.0833
HMEEYLENLTQSKLLHMLDQLSPAYKTVFTLFVLDELSHEEISKMLNISIGTSKSNLFRARKVMRVLMESE	-0.273
HMEFDIDAAIHAALEPQAVMRAWFGHEGREYPEDFGVVFFRGWESFTHQEKVEAVRDAKKVLDRAVR	-1.18
HMEFDSLINYEVKKKETLFSISKKFKIEINDLLSFNTELKNNKLKKNSIIIIPLKKKIVESQNFEKQKIID	-1.49
HMEFENIEQRKQYWSDLYRELKAGQDAYAKELKKGTEGYTQDELDILKEFTDEAKKQMEAAGVEATDEFAS	-0.0427
HMEFLLAIQPFVLLTDHANLTFLREQTDSMMKRIQINISGFEIEFRYVPGLTNILPDKMSRV	0.146
HMEFQEQLYRLRKQAGLSQEELSHIIGVSRQAVQKWEAGSARPDLDNLIALASHFKLSLDQLVGLT	-1.01
HMEFQSIGGKIRIGREREHLTQAELAQKLSVTRQAVSNWERDKTLPDIYMIREIAEIFGLTLDEFMEGAKK	-1.02
HMEGDAFAFTGDIQKDLLSITAVHPMRREAVDALIAKAGASWAIVEKLLAHGELTEAKHDGHLFYLRKF	-1.19
HMEGIAEILPASVRQKYGLIGLYDALRGLHFPGNMEEIKAARQRLAFEDTLMFSLTLSMMQYS	-0.146
HMEGIAYDINTAPEHIDLKAEDMMATFNIGKTALWRWVKQKILPPPYEYRSQAAHWTIGQIRDWKTA	-0.125
HMEGLDDKTKIILFAGDKKEQEYSLADLKSKLNITENLTESELIKLLEKQGYVLDVNANNEFMFKKD	-0.012
HMEGNFFADIRQELMRELDQEAEWSDVQILEKIDDLVLLRTRRSSLTVNEKEQLRKELFYSVRK	-0.345
HMEGRTVMATTAVNVRSGPGTSYKILGVLYPGHTAQQIGNTRYGWAQVTWKGHTAYIAARYLRDS	-2.71
HMEGSLQEDKVKEYQDRFKEELSNDLNTANSITVLYDLIKDDTLNGTTKRYLIEDFDKILSLDLIKE	0.167
